Reference: article PMC8798045

Assays:
[1] = biological target: Microtubules polymerized from bovine brain tubulin (bovine) (UniProt Q6B856); assay: single-molecule TIRF microscopy (dwell times); 5 nM 647-SSNA1 (100% labeled) alone on surface-bound GMPCPP-stabilized microtubule seeds; 0-5 min after SSNA1 addition; 5 fps; 35°C
[2] = biological target: Microtubules polymerized from bovine brain tubulin (bovine) (UniProt Q6B856); assay: single-molecule TIRF microscopy (dwell times); 5 nM 647-SSNA1 (100% labeled) alone on surface-bound GMPCPP-stabilized microtubule seeds; 5-10 min after SSNA1 addition; 5 fps; 35°C
[3] = biological target: Microtubules polymerized from bovine brain tubulin (bovine) (UniProt Q6B856); assay: single-molecule TIRF microscopy (dwell times); spiking: 5 nM 647-SSNA1 with 1 µM 488-SSNA1 on surface-bound GMPCPP-stabilized microtubule seeds; 5-10 min after SSNA1 addition; 5 fps; 35°C
[4] = biological target: Microtubules polymerized from bovine brain tubulin (bovine) (UniProt Q6B856); assay: single-molecule TIRF microscopy (dwell times); spiking: 5 nM 647-SSNA1 with 1 µM 488-SSNA1 on surface-bound GMPCPP-stabilized microtubule seeds; 0-5 min after SSNA1 addition; 5 fps; 35°C
[5] = biological target: Microtubules polymerized from bovine brain tubulin (bovine) (UniProt Q6B856); assay: TIRF microscopy; dynamic microtubules grown from GMPCPP seeds with 9 µM tubulin and 5 µM 488-SSNA1 (7% labeled), imaged 60 min; SSNA1 intensity at the microtubule end region; 35°C

For “Human 6His-SSNA1 (Sjögren's syndrome nuclear autoantigen-1) (from UniProt O43805 1-119) (natural protein)”, the mean single-molecule dwell time [1] was 12 s, the mean single-molecule dwell time [2] was 10 s and the association rate (events µm^–1 nM^–1 s^–1) [3] was 0.0024. For the same substance, the mean single-molecule dwell time [3] was 39 s, the association rate (events µm^–1 nM^–1 s^–1) [4] was 0.00096 and the mean single-molecule dwell time [4] was 19 s. For the same substance, the SSNA1 fluorescence intensity at the microtubule end region, 3 min [5] was 0.33 a.u.
